System: Fab
Assay: Residual binding activity to Fab after alkali treatment (alkali resistance)
Format: physicochemical, human
Settings: 0.2 mL peptide solution + 0.1 mL 45 mM sodium hydroxide, 25° C., 2 hours; compared with SpG mutant SEQ ID NO: 20
Method: Each peptide was subjected to dialysis using ultrapure water and the concentration thereof was adjusted to obtain 4 μM aqueous solution. To 0.2 mL of the aqueous solution, 0.1 mL corresponding to a half amount of the aqueous solution of 45 mM sodium hydroxide aqueous was added. The mixture was incubated at 25° C. for 2 hours and then neutralized by 0.1 mL of 50 mM acetic acid (pH 3.0). After it was confirmed that the mixture was neutralized by using a pH test paper, the mixture was diluted to 20 times by the standard buffer so that the concentration was adjusted to 100 nM.
The peptide solution prepared as the above was defined as a sample before alkali treatment at 0 hr, and 0.1 mL of the above sodium hydroxide aqueous solution and 0.1 mL of 50 mM acetic acid (pH 3.0) were preliminarily mixed and the mixture was added to the sample. The final concentration of the peptide in the solution was 100 nM.
A binding to an immunoglobulin by a similar method to Example 2(2) using Octet and the peptide solutions before and after the alkali treatment prepared in the above (1) was measured. An Fc was used instead of IgG in this experiment in order to simplify a binding pattern. […]
A residual binding activity to a Fab of the Fab-binding activity-enhanced peptides of SEQ ID NOs: 11 and 13 after the alkali resistance was also evaluated. […]

Row | Substance | Alkali resistance: residual binding activity to a Fab after the alkali treatment (FIG. 3B)
1 | SEQ ID NO: 11: Fab-binding activity-enhanced immunoglobulin-binding peptide, partly mutated sequence of SEQ ID NOs: 2 to 7 (TTYKLIVKGNTLTGYTTTIAVDAETAEKALKQFANENGVYGEWSYDDATKTFTVTE; novel peptide) | similarly improved
2 | SEQ ID NO: 13: Fab-binding activity-enhanced immunoglobulin-binding peptide, partly mutated sequence of SEQ ID NOs: 2 to 7 (TTYRLVIKGVTLTGYTATIAVDAATAEQTLRQFANDNGITGEWAYDTATKTFTVTE; novel peptide) | similarly improved

From patent publication US20200016512A1, “AFFINITY […] FOR PURIFYING IMMUNOGLOBULIN” (KANEKA CORPORATION, priority 2017, published 2020)
